Source: article PMC9643438

Columns and labels:
Cys273 = Cys273 (UniProt position 273, KHPWICQRSTV); test: chemical modification (iodoacetamide alkylation) with mass spectrometry readout; conditions: purified, reduced, native CaMKIIdelta; presence of Ca2+/calmodulin not stated
Cys290 = Cys290 (UniProt position 290, QETVDCLKKFN); test: as above; conditions: purified, reduced, native CaMKIIdelta; presence of Ca2+/calmodulin not stated

Substance | pKa (Cys273) | pKa (Cys290)
Calcium/calmodulin-dependent protein kinase II delta (CaMKIIdelta), 'Cys273' mutant (Homo sapiens; C7S;C290S;C481S) | 7.4 | –
Calcium/calmodulin-dependent protein kinase II delta (CaMKIIdelta), 'Cys290' mutant (Homo sapiens; C7S;C273S;C481S) | – | 9.7
